In US11851421B2, “Near-infrared cyanine dyes and conjugates thereof” (BRACCO IMAGING S.P.A., priority 2020, dated 2023):

Tests used:
[1] = Optical properties: excitation/emission maxima and absolute fluorescence quantum yield; assay type: physicochemical
Protocol: A dual-beam UV-VIS spectrophotometer (Lambda 40, Perkin Elmer) was used to determine the absorbance (Abs) of the compounds of the invention. Emission/excitation (Em/Ex) spectra and absolute fluorescence quantum yield (ϕ) measurements were carried out on a spectrofluorometer (FluoroLog-3 1IHR-320, Horiba Jobin Yvon) equipped with an F-3018 integrating sphere accessory. The measurements were performed using an excitation wavelength at maximum absorbance of different dyes, and the sample was excited with a 450 W Xenon Light Source. Detection was performed by photomultiplier tubes (PMT-NIR) cooled detector or by TBX-04 detector. Dye solutions were carefully prepared to have an absorbance lower than 0.1 (optical densities) to minimize re-absorption phenomena.
The compounds of the invention have been characterized in terms of their optical properties in vitro in aqueous medium (i.e., water/PBS pH 7.4) and in a clinical chemistry control serum (Seronorm, Sero SA), mimicking the chemical composition and optical properties of human serum. All dye or dye-conjugate solutions were freshly prepared. ICG and S0456 were used as commercial references.
In particular, the excitation and emission maxima and the absolute fluorescence quantum yield (Φ) of representative compounds of formula (I) and conjugates of formula (II) are shown in Table II.

[2] = biological target: T1, human recombinant integrin αvβ3 (Homo sapiens, UniProt P05106+P06756); experiment: Receptor binding affinity ELISA (Vitronectin-coated plates); conditions: duplicate, read-out: Receptor affinity (IC50, nM ± St. Dev.)
T1 construct: purchased R&D Systems
T1 sequence (P06756 31-992 limits assumed): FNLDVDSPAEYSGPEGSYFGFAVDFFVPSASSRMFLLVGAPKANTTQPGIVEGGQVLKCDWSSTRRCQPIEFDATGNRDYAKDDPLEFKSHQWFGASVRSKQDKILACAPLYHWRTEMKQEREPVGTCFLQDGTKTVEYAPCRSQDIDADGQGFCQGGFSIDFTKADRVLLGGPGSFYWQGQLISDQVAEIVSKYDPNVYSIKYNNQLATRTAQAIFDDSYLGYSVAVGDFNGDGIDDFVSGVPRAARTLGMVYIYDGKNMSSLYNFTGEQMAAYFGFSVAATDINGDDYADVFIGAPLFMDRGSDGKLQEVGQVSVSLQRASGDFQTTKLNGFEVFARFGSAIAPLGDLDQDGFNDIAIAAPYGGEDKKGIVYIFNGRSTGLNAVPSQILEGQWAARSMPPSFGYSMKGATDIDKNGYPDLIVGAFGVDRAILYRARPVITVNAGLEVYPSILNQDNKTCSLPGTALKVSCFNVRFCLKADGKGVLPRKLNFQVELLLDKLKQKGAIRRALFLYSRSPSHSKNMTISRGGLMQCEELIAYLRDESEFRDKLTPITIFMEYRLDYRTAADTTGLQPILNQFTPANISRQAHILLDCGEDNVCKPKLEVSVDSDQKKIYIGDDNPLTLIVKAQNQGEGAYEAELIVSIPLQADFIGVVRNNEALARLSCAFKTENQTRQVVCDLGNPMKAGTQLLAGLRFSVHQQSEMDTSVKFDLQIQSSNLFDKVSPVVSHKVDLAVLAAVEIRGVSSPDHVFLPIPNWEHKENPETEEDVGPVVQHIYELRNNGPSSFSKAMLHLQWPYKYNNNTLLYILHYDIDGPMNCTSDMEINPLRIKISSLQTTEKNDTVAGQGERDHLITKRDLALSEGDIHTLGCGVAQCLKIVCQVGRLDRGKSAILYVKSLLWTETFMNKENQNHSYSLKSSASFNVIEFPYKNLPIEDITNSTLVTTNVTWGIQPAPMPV
T1 sequence (P05106 27-718 limits assumed): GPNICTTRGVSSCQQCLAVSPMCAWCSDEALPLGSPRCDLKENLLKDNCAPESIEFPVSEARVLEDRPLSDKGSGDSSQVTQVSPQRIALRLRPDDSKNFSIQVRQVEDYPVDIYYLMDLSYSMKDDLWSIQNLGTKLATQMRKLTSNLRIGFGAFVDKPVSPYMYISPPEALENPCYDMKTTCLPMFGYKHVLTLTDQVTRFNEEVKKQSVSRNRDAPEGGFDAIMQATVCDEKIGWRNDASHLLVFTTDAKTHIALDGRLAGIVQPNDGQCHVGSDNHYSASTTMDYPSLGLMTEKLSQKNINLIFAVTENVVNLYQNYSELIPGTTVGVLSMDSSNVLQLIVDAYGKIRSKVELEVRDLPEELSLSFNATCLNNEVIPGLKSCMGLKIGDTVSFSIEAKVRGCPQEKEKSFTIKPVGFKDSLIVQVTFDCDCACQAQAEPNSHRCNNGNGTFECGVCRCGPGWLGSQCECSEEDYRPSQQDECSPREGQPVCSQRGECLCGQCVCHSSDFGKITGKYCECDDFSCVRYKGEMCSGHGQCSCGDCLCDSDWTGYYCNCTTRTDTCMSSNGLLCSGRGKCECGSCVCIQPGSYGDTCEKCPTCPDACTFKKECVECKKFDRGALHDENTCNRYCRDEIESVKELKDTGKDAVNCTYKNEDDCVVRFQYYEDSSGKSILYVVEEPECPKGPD
Protocol: Briefly, 96-well ELISA plates were coated overnight at 4° C. with the extracellular matrix (ECM) protein Vitronectin in carbonate buffer (15 mM Na2CO3, 35 mM NaHCO3, pH 9.6). Each well was then washed with PBS-T-buffer (phosphate-buffered saline/Tween20, 137 mM NaCl, 2.7 mM KCl, 10 mM Na2HPO4, 2 mM KH2PO4, 0.01% Tween20, pH 7.4) and blocked for 1 h at RT with TS-B-buffer (Tris-saline/BSA buffer; 20 mM Tris-HCl, 150 mM NaCl, 1 mM CaCl2, 1 mM MgCl2, 1 mM MnCl2, pH 7.5, 1% BSA). In the meantime, a dilution series of the compound and internal standard was prepared in an extra plate. After washing the assay plate three times with PBS-T, 50 μL of the dilution series were transferred to each well. 50 μL of a solution of human recombinant integrin αvβ3 (R&D Systems, 1 μg/mL) in TS-B-buffer was transferred to the wells and incubated for 1 h. The plate was washed three times with PBS-T buffer, and then primary antibody anti-αvβ3 was added to the plate. After incubation and washing three times with PBS-T, the secondary anti-IgG peroxidase-labeled antibody was added to the plate and incubated for 1 h. After washing the plate three times with PBS-T, the plate was developed by quick addition of 3,3′,5,5′-tetrametylbenzidine (TMB) and incubated for 5 min in the dark. The reaction was stopped with 3 M H2SO4, and the absorbance was measured at 450 nm with a plate reader (Victor3, Perkin Elmer).
The IC50 of the representative Compounds 1, 2 and 4 was tested in duplicate, and the resulting inhibition curves were analyzed using GraphPad Prism version 4.0 for Windows (GraphPad Software). The inflection point defines the IC50 value.

[3] = tested on: human glioblastoma U87MG cells; experiment: Tumor uptake in animal model of human glioblastoma (subcutaneous), ex vivo optical imaging; conditions: ex vivo tumor-to-muscle, 24 h after i.v. administration, glioblastoma tumor bearing mice, n = 5/group
Protocol: Tumor uptake experiments were carried out in an animal model of human glioblastoma (subcutanous) overexpressing the integrin receptors, particularly αvβ3. Briefly, human glioblastoma U87MG cells (ATCC, HTB-14) were cultured in Eagle's Minimum Essential Medium (EMEM) supplemented with 10% Fetal Bovine Serum (FBS), 2 mM glutamine, 100 IU/mL penicillin, 100 μg/mL streptomycin. Male Balb/c nu/nu mice, 4-6 weeks of age (Charles River Laboratories), underwent subcutaneous implantation (right flank) of about 10 million cells suspended in 0.1 mL of EMEM. Mice were housed 4 per cage with food and water ad libitum. Animals were fed with VRF1 (P) sterile diet (Special Diets Services Ltd) up to the end of the acclimation period (5 days). Then, AIN-76a rodent diet irradiated (Research Diets), a special diet that reduces auto-fluorescence, was used up to the end of the experiments. Tumor growth was monitored by longitudinal assessments using a caliper up to the target size of 300-600 mm^3 (3-4 weeks after cell implantation). […] Regions of interest (ROIs) were drawn on the excised tumor and healthy muscle tissues to evaluate signal intensity (expressed as Average Radiant Efficiency). The ratio between the fluorescence signal in the tumor and in the muscle (background tissue) was then calculated to assess the contrast.

[4] = tested on: human pharyngeal carcinoma cells Detroit-562; experiment: Tumor uptake in animal model of human head and neck cancer (orthotopic), ex vivo optical imaging; conditions: ex vivo anterior vs posterior tongue, 24 h after i.v. 3 nmol/mouse, H&N tumor bearing mice, n = 5/group
Protocol: Tumor uptake experiments were performed in an animal model of human head and neck cancer (orthotopic), using Detroit-562 cells, overexpressing in particular integrin receptor αvβ6. Briefly, the human pharyngeal carcinoma cells Detroit-562 (ATCC, CCL-138) were cultured in Eagle's Minimum Essential Medium (EMEM) supplemented with 10% Fetal Bovine Serum (FBS), 2 mM glutamine, 100 IU/mL penicillin, 100 μg/mL streptomycin. Male Balb/c nu/nu mice, 4-6 weeks of age (Charles River Laboratories), underwent orthotopic implantation in the anterior portion of the tongue of about 2.5 million cells suspended in 0.03 mL di EMEM. Mice were housed 4 per cage with food and water ad libitum. Animals were fed with VRF1 (P) sterile diet (Special Diets Services Ltd) up to the end of the acclimation period (5 days). Then, AIN-76a rodent diet irradiated (Research Diets), a special diet that reduces auto-fluorescence, was used up to the end of the experiments. Tumor growth was monitored by longitudinal assessments using a caliper up to the target size of 10-20 mm^3 (7-10 days after cell implantation).
Imaging experiments were performed using the preclinical optical system IVIS Spectrum (Perkin Elmer). Animals were intravenously injected (lateral tail vein) with 3 nmol/mouse, at 24 hours post-administration were euthanized by anesthesia overdose, and the tongues were excised for ex vivo optical imaging. […]

[5] = tested on: human colorectal adenocarcinoma cells HT-29; experiment: Tumor uptake in animal model of human colorectal cancer (subcutaneous), ex vivo optical imaging; conditions: ex vivo tumor-to-muscle, 24 h after i.v. administration, colorectal cancer bearing mice, n = 5/group
Protocol: Tumor uptake experiments were performed in an animal model of human colorectal cancer (subcutaneous), using HT-29 cells, expressing low levels of integrin receptors. Briefly, the human colorectal adenocarcinoma cells HT-29 (ATCC, HTB-38) were cultured in McCoy's 5 A medium supplemented with 10% foetal bovine serum, 2 mM glutamine, 100 IU/mL penicillin and 100 μg/mL streptomycin. Male Athymic nude mice, 4-6 weeks of age (Envigo), underwent subcutaneous implantation (right flank) of about 5 million cells suspended in 0.1 mL of serum-free medium. Mice were housed 4 per cage with food and water ad libitum. […] Then, AIN-76a rodent diet irradiated (Research Diets), a special diet that reduces auto-fluorescence, was used up to the end of the experiments. Tumor growth was monitored by longitudinal assessments using a caliper up to the target size of 300-600 mm^3 (3-4 weeks after cell implantation). […]
In vivo imaging was performed under gas anesthesia (Sevofluorane 6-8% in oxygen). […] Regions of interest (ROIs) were drawn on the excised tumor and healthy reference tissue (muscle) to evaluate signal intensity (expressed as Average Radiant Efficiency). The ratio between the fluorescence signal in the tumor and in the muscle (background tissue) was then calculated to assess the tumor-to-background ratio (TBR).

[6] = biological target: T2, human serum albumin (HSA) (Homo sapiens, UniProt P02768); experiment: Binding affinity to human serum albumin (absorbance peak shift or ultrafiltration method)
T2 construct: purchased Sigma Aldrich A9511
T2 sequence (P02768 25-609): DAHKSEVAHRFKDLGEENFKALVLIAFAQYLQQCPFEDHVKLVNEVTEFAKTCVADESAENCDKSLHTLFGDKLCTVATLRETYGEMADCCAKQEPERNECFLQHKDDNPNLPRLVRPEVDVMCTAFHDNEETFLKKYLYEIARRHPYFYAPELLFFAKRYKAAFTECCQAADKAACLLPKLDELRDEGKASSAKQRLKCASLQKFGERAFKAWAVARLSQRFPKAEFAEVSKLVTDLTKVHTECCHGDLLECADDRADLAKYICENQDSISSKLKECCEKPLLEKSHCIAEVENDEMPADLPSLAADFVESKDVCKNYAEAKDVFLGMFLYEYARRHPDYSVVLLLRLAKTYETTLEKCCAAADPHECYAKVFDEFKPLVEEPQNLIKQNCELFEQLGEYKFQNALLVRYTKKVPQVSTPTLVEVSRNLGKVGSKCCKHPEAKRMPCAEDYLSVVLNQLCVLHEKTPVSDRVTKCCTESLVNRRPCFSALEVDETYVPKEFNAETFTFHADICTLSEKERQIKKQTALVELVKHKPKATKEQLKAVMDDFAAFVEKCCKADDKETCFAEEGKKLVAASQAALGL
Protocol: An analysis of the binding affinity of the compounds of the invention to human albumin was carried out and the results compared with ICG and […] as a reference. Binding affinity to human serum albumin (HSA; Sigma Aldrich, A9511) was measured using two methods, according to the level of binding affinity of the compounds. The first method, optimal for compounds which strongly interact with HSA, is based on the analysis of the absorbance spectrum peak shift after the incubation of the dye in solutions containing HSA. […] The measure was performed at the maximum absorbance wavelength of the shifted peak. The second method, optimal for compound with low affinity for HSA, is based on measuring the variation of the absorbance of solutions containing the dye and various concentrations of HSA after ultrafiltration. […] In the first method, ΔA/b corresponds to the absorbance measured for each sample, whereas in the second method ΔA/b is obtained subtracting the absorbance of the control sample (dye without HSA) to the absorbance of each other sample.

[7] = tested on: WM-266-4 human melanoma cells; experiment: Cell uptake by FACS in presence of human serum; assay type: cell-based; conditions: WM-266-4 cells; fluorescence intensity in absence of serum = 100%
Protocol: The human melanoma cell line WM-266-4 (ATCC, CRL-1676) was used as in vitro model to assess the cell uptake of representative integrin-binding Compounds 1, 2 and 4, based on the high expression of the integrin receptors, particularly αvβ3, on the membrane of these cells (Capasso et al., PlosOne 2014).
Adherent cells at about 70% confluence were incubated with the Compounds 1 or 3 (1 μM) for 2 h at 37° C. (5% CO2) in presence of Dulbecco's Modified Eagle's Medium (DMEM) supplemented with 10% FBS, 2 mM glutamine, 100 IU/mL penicillin and 100 μg/mL streptomycin. […] Fluorescence Activated Cell Sorting (FACS) was used to detect the fluorescence signal within the cells, as measure of cell uptake. Samples were excited with an Argon laser and the emission detected using a 670 nm longpass filter. Values of fluorescence intensity were obtained from the histogram statistic produced by the instrument software.
The residual internalization was calculated by considering the value of fluorescence intensity in absence of the competitor as 100%.
Furthermore, to assess the effect of biological fluids on the cell uptake, parallel experiments were performed incubating the cells with a compounds of the invention in presence of human serum from male AB plasma (Sigma Aldrich, H4522). The residual internalization was calculated by considering the value of fluorescence intensity in absence of the serum as 100%. […]

[8] = Seronorm (clinical chemistry control serum)

CC1(C)C(/C=C/C2=C(c3ccc(CCC(=O)NCCCCC4NC(=O)[C@@H](Cc5ccccc5)NC(=O)[C@H](CC(=O)O)NC(=O)CNC(=O)[C@H](CCCNC(=N)N)NC4=O)cc3)C(=C/C=C3/N(CCCCS(=O)(=O)O)c4ccc(C(=O)NCC(O)C(O)C(O)C(O)CO)cc4C3(C)C)/CCC2)=[N+](CCCCS(=O)(=O)[O-])c2ccc(C(=O)NCC(O)C(O)C(O)C(O)CO)cc21 (some centres unmarked) [Compound 1]
Max Em (emission maximum) ([1]; PBS pH 7.4): 788 nm
Max Ex (excitation maximum) ([1]; PBS pH 7.4): 771 nm
Φ (absolute fluorescence quantum yield) ([1]; PBS pH 7.4): 4.4%
Φ (absolute fluorescence quantum yield) [1, 8]: 10.9%
IC50 [2]: 2.73 ± 0.5 nM
Tumor-to-background ratio (mean ± St. Dev) [3]: 6.92 ± 0.64
Tumor-to-background ratio (mean ± St. Dev) [4]: 2.27 ± 0.50
Tumor-to-background ratio (mean ± St. Dev) [5]: 4.30 ± 1.50

CC1(C)C(/C=C/C2=C(Oc3ccc(S(=O)(=O)O)cc3)C(=C/C=C3/N(CCCCCC(=O)NCCCCC4NC(=O)[C@@H](Cc5ccccc5)NC(=O)[C@H](CC(=O)O)NC(=O)CNC(=O)[C@H](CCCNC(=N)N)NC4=O)c4ccc(C(=O)NCC(O)C(O)C(O)C(O)CO)cc4C3(C)C)/CCC2)=[N+](CCCCS(=O)(=O)[O-])c2ccc(C(=O)NCC(O)C(O)C(O)C(O)CO)cc21 (some centres unmarked) [Compound 2]
Max Em (emission maximum) ([1]; PBS pH 7.4): 805 nm
Max Ex (excitation maximum) ([1]; PBS pH 7.4): 783 nm
Φ (absolute fluorescence quantum yield) ([1]; PBS pH 7.4): 6.1%
Φ (absolute fluorescence quantum yield) [1, 8]: 7.5%
Kd [6]: 38200 nM
IC50 [2]: 1.64 ± 0.41 nM
Residual cell uptake in presence of human serum [7]: 90%
Tumor-to-background ratio (mean ± St. Dev) [4]: 2.26 ± 0.10
Tumor-to-background ratio (mean ± St. Dev) [5]: 4.20 ± 0.80
